Experimental findings from patent US20110217305A1 (SYMPHOGEN A S, published 2011) are described below.

For this assay, the target named is T1, Fc-conjugated HER2 (HER2-Fc), R&D Systems cat. No 1129-ER (human, UniProt P04626 23-652).
T1 construct: Bought reagent; Captured on an anti-Fc surface in the SPR binning; also called rhHER2; HER2 protein (R&D Systems cat.#1129-ER); not shown: Fc part of the bought fusion protein
The assay is described as follows: SPR epitope binning (ProteOn XPR36), HER2-Fc captured via anti-Fc; competitor 4387; class limits for the pair.

B1: antibody 4382 (antibody, human IgG1, kappa, V domains shown)
VH: EVQLQQSGPELVKPGASVKISCTASGYTFTDYYMNWVKQSHGKSLEWIGDINPNNGGTNYNQKWKGKATLTIHKSSSTAYMELRSLTSEDSAVYFCVPGGLRSYFDYWGQGTTLTVSS
VL: DIVMTQSLKFMSASVGDRVSITCKASQDVSAAVAWYQQKPGQSPELLIYWASTRHTGVPDRFTGSGSGTDYTLTISSVQAEDLALYYCQQHYTTPPTFGGGTKLEIKR
notes: Chimeric murine/human IgG1 kappa
The term % inhibition denotes the relative decrease from the control value, in per cent. The low end stands for little suppression, the high end for strong suppression. For B1, the “% inhibition” value is 25 to 50%.
